Data taken from paper PMC4538820, “The XRCC1 phosphate-binding pocket binds poly (ADP-ribose) and is required for XRCC1 function” (Nucleic Acids Research, 2015).

B1: His-XRCC1^161–406 (domain or fragment, human, UniProt P18887 161-406, looked up)
chain: PSQKVTVTKLGQFRVKEEDESANSLRPGALFFSRINKTSPVTASDPAGPSYAAATLQASSAASSASPVSRAIGSTSKPQESPKGKRKLDLNQEEKKTPSKPPAQLSPSVPKRPKLPAPTRTPATAPVPARAQGAVTGKPRGEGTEPRRPRAGPEELGKILQGVVVVLSGFQNPFRSELRDKALELGAKYRPDWTRDSTHLICAFANTPKYSQVLGLGGRIVRKEWVLDCHRMRRRLPSQRYLMAGP
notes: Vector pTWO-E (from pET-17b) adds an N-terminal His6 tag that can be cleaved by rhinovirus 3C; also called wild-type histidine-tagged fragment of human XRCC1 spanning the conserved BRCT1 domain; source: E. coli Rosetta2 (DE3)pLysS, purified (Talon resin, heparin column); not shown: His6, N-terminal, kept

Legend:
[1] = biological target: mock-ribosylated histone H1 (adsorbed to microwells, no NAD+); experiment: microwell plate binding assay (absorbance at 450 nm); conditions: 0 μM NAD+, read off a plot
[2] = biological target: ribosylated histone H1 (adsorbed to microwells, ribosylated with PARP1 and NAD+); experiment: as above; conditions: read off a plot
[3] = biological target: T1, ribosylated PARP1 (adsorbed to microwells, ribosylated with PARP1 and NAD+) (human, UniProt P09874 1-1014, poly (ADP-ribosyl)ated by PARP1 in the presence of 1–50 μM NAD+; sites not stated); experiment: ELISA; PARP1, histone H1 or BSA adsorbed to microwells (0.1 mg/ml in PBS), mock-ribosylated (no NAD+) or ribosylated with 5 nM PARP1 and 1–50 μM NAD+; 25 nM His-XRCC1 in 20 mM Tris pH7.5, 130 nM NaCl, 30 min on ice; detected with anti-His Mab and HRP secondary, A450; conditions: both partners purified
T1 construct: PARP1, poly (ADP-ribose) polymerase 1; 'recombinant, human, full length' is printed for the 5 nM PARP1 of the reaction; Species and form are printed for the PARP1 used as enzyme; I took the adsorbed PARP1 to be the same preparation; also called PARP1 +NAD+; autoribosylated PARP1; source: recombinant
T1 sequence (P09874 whole entry): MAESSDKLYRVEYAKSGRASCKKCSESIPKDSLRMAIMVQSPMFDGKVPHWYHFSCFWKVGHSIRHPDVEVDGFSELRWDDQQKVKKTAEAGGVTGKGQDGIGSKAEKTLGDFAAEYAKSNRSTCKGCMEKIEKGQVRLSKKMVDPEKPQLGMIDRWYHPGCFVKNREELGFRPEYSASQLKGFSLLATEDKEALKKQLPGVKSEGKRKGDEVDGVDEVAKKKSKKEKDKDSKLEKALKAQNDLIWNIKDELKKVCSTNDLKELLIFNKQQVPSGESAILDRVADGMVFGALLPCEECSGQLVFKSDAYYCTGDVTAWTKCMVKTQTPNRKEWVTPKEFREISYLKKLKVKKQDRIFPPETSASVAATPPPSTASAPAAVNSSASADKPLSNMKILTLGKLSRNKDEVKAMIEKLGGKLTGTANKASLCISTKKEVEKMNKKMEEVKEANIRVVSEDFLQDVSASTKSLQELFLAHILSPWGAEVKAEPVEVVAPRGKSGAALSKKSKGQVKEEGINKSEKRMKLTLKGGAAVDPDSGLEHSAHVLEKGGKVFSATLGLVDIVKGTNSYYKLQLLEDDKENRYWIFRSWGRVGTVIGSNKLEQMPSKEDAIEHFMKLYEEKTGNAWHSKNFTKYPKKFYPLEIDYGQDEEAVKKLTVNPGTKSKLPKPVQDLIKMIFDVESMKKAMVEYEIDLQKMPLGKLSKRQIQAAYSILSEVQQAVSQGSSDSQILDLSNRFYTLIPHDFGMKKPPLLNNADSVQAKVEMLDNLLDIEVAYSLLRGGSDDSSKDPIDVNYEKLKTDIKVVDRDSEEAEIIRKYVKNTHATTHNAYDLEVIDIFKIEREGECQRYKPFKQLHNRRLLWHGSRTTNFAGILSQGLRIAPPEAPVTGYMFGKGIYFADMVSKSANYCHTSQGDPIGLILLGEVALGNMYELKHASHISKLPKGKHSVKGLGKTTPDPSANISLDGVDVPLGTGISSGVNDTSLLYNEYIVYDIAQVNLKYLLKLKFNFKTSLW

Row | Molecule | response ([1]; adsorbed histone H1 mock-ribosylated, parent: est. 0.11) [Abs 450nm] | response ([1]; left panel, calf thymus histone mock-ribosylated, no competitor, parent: est. 0.10) [Abs 450nm] | response ([2]; adsorbed histone H1 ribosylated with 1 μM NAD+, parent: est. 1.7) [Abs 450nm] | response ([2]; adsorbed histone H1 ribosylated with 10 μM NAD+, parent: est. 2.1) [Abs 450nm] | response ([2]; adsorbed histone H1 ribosylated with 50 μM NAD+, parent: est. 2.2) [Abs 450nm] | response ([2]; left panel, calf thymus histone ribosylated with 0.5 μM NAD+, no competitor, parent: est. 0.82) [Abs 450nm] | binding result [3]
1 | His-XRCC1^161–406 (from UniProt P18887) R335A; K369A | 0.1 | 0.12 | 0.12 | 0.78 | 1.2 | 0.11 | –
2 | B1 | – | – | – | – | – | – | binds
